From PMC8079448, “Structure of the SWI/SNF complex bound to the nucleosome and insights into the functional modularity” (Cell Discovery, 2021)
Blank lines part the entries; values can stand above or below the binder they belong to.

Molecular target: T1, Snf5 (wild type, subunit of the recombinant SWI/SNF complex) (yeast, UniProt P18480 1-905)
T1 construct: Snf5, yeast, wild type; also called WT; source: overexpressed in E. coli (modified EcoExpress system), in the reconstituted complex
Assay: cryo-EM structure; recombinant yeast SWI/SNF complex in complex with the mononucleosome; overall resolution 6.9 Å, local 3.1 Å at the nucleosome bound with the FH of Snf5, local 3.6 Å at the SRM
Conditions: both partners purified

T1 sequence (P18480 whole entry, one chain of several): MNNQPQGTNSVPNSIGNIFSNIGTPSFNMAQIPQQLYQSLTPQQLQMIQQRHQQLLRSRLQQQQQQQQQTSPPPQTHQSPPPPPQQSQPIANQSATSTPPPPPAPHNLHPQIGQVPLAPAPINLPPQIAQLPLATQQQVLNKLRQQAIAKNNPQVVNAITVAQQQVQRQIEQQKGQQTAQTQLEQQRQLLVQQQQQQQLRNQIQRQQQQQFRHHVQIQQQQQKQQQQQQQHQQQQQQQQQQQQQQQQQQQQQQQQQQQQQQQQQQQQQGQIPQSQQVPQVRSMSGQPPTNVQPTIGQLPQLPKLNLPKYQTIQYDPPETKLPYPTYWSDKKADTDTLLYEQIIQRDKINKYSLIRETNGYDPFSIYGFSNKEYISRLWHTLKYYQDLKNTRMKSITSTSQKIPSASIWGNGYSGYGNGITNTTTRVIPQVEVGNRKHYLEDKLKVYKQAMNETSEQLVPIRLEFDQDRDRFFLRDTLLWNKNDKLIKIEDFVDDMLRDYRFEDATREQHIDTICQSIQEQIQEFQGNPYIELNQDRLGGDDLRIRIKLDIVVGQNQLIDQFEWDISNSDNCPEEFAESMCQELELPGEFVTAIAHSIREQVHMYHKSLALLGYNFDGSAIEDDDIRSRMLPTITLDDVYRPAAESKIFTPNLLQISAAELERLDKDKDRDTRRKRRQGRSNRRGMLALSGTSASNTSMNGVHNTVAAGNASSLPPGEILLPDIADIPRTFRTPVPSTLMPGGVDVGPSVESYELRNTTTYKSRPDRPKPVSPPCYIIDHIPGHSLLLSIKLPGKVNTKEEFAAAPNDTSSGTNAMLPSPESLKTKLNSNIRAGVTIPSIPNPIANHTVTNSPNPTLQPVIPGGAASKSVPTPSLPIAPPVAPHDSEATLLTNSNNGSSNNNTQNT

binding result: binds
B1: Swp82 (natural protein, yeast)
chain: MLGEDEGNTVLEKGNNPSVKQGEVGAVFIVPKILIREHERVILKQILQILDQDELVQPPLDKFPYKKLELPKYIDELKTRDATNTSYKMIQLDAYGEKKVGSNGELFGGRHYLFNTFTFTAHMGVLLVLLQDVIKVLYQSNATHDEDEFIVQHDQILVMETSEEQTKFLAKNGVIPEESKGSFKYITARSAFVEFGASVIAGGQRIVDDYWESLAKKQNLSSHQRVFKLSTNLISKISLLRPSFQNNRISNANEISANTNNTCTISTSKFESQYPIVTEQPSAEIREAYIENFAKGEHISAIVPGQSISGTLELSAQFRVPRYHSKNSFQQALQMKAMDIPIGRHEELLAQYESQAPDGSASISLPNHIPSVNPSNKPIKRMLSSILDINVSSSKNKKSEENEMIKPMNKGQHKNNTSLNINGWKFESLPLKSAENSGKQQYYRGLPLYEKNTLLERLKQLTPNEIKELEHLHDAVFVNTGLQNVRKVRTKKWKKYWQYKAGIPIGLKRSQLDEFKNKYLKDVLAQTSVTTNFNEITNTDETITTKRVPNPNFLGNCNIKDFKPPYIYSHVNKVPQNVAGDKTAVKLDTEVKNTNANPVVATDPVAAKPDNLANFSNEVAMNN
notes: Swp82, yeast; source: overexpressed in E. coli (modified EcoExpress system), in the reconstituted complex

binding result: binds
B2: Swi3 (natural protein, yeast)
chain: MENTLGEGSTVNASVDVDQHGNDNNSDSNANAAVAGVANTDTAGEESQQQDESLKDEATVPNTRDAESEAITVTAKQQPTMQANKLDSQETPSTEESRAQNVFGQDNEDSDNLFGETESSVSNNEANTPSIPTNPVDNENNKPAIKEDSTIQDSNGDVKNMEDVKIQKEEEPENNTVIEGVKEESQPDENTKEMDEVEEDDEDDDQPMISPDNSIFGDTKSESKQLGNTSSVANTPSEIPDAHKAEQEDIIEKTESVDKKVDSGEERNEQEREIMNDHSKSANPKKTTITRVEPETFEIPQAHEIVIPSYSKWFNLEKIHSIEVQSLPEFFTNRIPSKTPEVYMRYRNFMVNSYRLNPNEYFSVTTARRNVSGDAAALFRLHKFLTKWGLINYQVDSKLLPKNIEPPLTSQYSTRHDAPRGLFPFESYKPSVQLPDMAKLKKMMNTSDSESTLYKYLKESKRKYDEITHPPSTTDDENGDKNDNGGKMNNEVSTSTSMTGDANLLEEGETSRPLKKVKILEQIDENWSKEDLQKLLKGIQEFGADWYKVAKNVGNKSPEQCILRFLQLPIEDKFLYGDGNGKGDNDNGLGPLKYAPHLPFSKSENPVLSTIAFLVGLVNPKTVQSMTQRAIQSAESIKSQKEEISDQKPIEHIKEGSEIAISSLGYRSHIFATNEERQMNFLTNELIRLQMEKLDAKLNHLKKLEKFMELERKTLERQQENLLIQRLNFNQNSSKIVNVLSKCLNLISDSNINNSSVAEKEEIRSQIDHFKSMLSKPETLSIGKNPFNKPNIETGENHNGQSISNENDVKPISIEAPQFYRYWSA
notes: Swi3, yeast; source: overexpressed in E. coli (modified EcoExpress system), in the reconstituted complex
